Experimental data taken from the RNAGym collection of RNA variant scans (doi:10.1073/pnas.2313332121).

B1: TPR t1 (parent)
chain: GACCAAUCUGCCCUCAGAGCUCGAGAACAUCUUCGGAUGCAGAGGAGGCAGGCUUCGGUGGCGCGAUAGCGCCAACGUCCUCAACCUCCAAUGCAUCCCACCACAUGAUGAUGCCUGAAGAGCCUUGGUUUUUUG

Variants of: B1
Test: polymerase ribozyme fitness, log enrichment relative to wild type (log ratio); higher = more active; in vitro selection for triplet polymerase activity
Summary of the method: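 Only genotypes with ≥10 input reads and ≥1 read per output were kept after Illumina sequencing of input and output libraries. These libraries were PCR-built, transcribed mutants of each subunit of a heterodimeric triplet polymerase ribozyme, each put through one triplicate in vitro selection round with frozen incubation at −7 °C, gel excision of extended constructs, streptavidin-bead capture and RT-PCR. Fitness is a logarithmic ratio of genotype enrichment to wild-type enrichment, from inverse-variance-weighted replicate averages, with the logarithm in base 2.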

Row | Variant | polymerase ribozyme fitness (log ratio)
1 | GACCAAUCUGCCCUCAGAGCUCGAGAACAUCUUCGGAUGCAGAGUAGGCAGGCUUCGGUGGCCCGAUAGCGCCAACGUCCUCAACCUCCAAUGCAUCCCACCAUAUGAUGAUGCCUGAAGAGCCUUGGUUUUUUG [G45U G63C C104U] | -0.927
2 | GACCAAUCUGCCCUCAGAGCUCGAGAACAUCUUCGGAUGCAGAGUAGGCAGGCUCCGGUGUCGCGAUAGCGCCAACGUCCUCAACCUCCAAUGCAUCCCACCACAUGAUGAUGCCUGAAGAGCCUUGGUUUUUUG [G45U U55C G61U] | -1.09
3 | GACCAAUCUGCCCUCAGAGCUCGAGAACAUCUUCGGAUGCAGAGUAGGCAGGCUUCGGUGGCGCGAUAGCGCCAACGACCUCAACCUCCAAUGCAUCCCACCACAUGAUGAUGCCUGAAGAGCCUUGGUUUUUUG [G45U U78A] | -1.86
4 | GACCAAUCUGCCCUCAGAGCUCGAGAACAUCUUCGGAUGCAGAGGCGGCAGGUUUCGGUGGCGCGAUAGCGCCAACGUCCUCAACCUCCAAUGCAUCCCACCACAUGAUGAAGCCUGAAGAGCCUUGGUUUUUUG [A46C C53U U112A] | 0.835
5 | GACCAAUCUGCCCUCAGAGCUCGAGAACAUCUUCGGAUGCAGAGGCGGCUGGCUUCGGUGGCGCGAUAGCGACAACGUCCUCAACCUCCAAUGCAUCCCACCACAUGAUGAUGCCUGAAGAGCCUUGGUUUUUUG [A46C A50U C72A] | -1.15
6 | GACCAAUCUGCCCUCAGAGCUCGAGAACAUCUUCGGAUGCAGAGGCGGCAGGCUUGGGUGGCGCGAUAGCGGCAACGUCCUCAACCACCAAUGCAUCCCUCCACAUGAUGAUGCCUGAAGAGCAUUGGUUUUUUG [A46C C56G C72G U87A A100U C124A] | -0.516
7 | GACCAAUCUGCCCUCAGAGCUCGAGAACAUCUUCGGAUGCAGAGUAGGCAGGCUUCGGUGGCGCGAUAGCGCCAACGUCCUCAACCUCCAAUGCAUCCCACCACAUGAUGAUGCCUGAAGAGCCUUGUUUUUUUG [G45U G128U] | -2.42
8 | GACCAAUCUGCCCUCAGAGCUCGAGAACAUCUUCGGAUGCAGAGGCGGCAGGCUUUGGUGGCGCGAUAGCGUCAACGACCUCAACCUCCGAUGUAUCCCACCACAUGAUGCUGCCUGAAGAGCCUUGGUUUUUUG [A46C C56U C72U U78A A90G C94U A111C] | -0.367
9 | GACCAAUCUGCCCUCAGAGCUCGAGAACAUCUUCGGAUGCAGAGUAGGCAGGCUUCGGUGGCGCGAUAGCGCCAACGUCCACAACCUCCAAUGCAUCCCACCACAUGAUGAUGCCUGAAGAGCCUUGGUUUUUUG [G45U U81A] | -3.03
10 | GACCAAUCUGCCCUCAGAGCUCGAGAACAUCUUCGGAUGCAGAGUAGGCAGGCUUCGGUGGCUCGAUAGCGCCAACGUCCUCAACCUCCAAUGCAUCCCAGCACAUGAUGAAGCCUGAAGAGCCUUGGUUUUUUG [G45U G63U C101G U112A] | -2.32
11 | GACCAAUCUGCCCUCAGAGCUCGAGAACAUCUUCGGAUGCAGAGGCGGAAGGCUUCGGUGGCACGAUAGCGCCAACGUCCUCAACCUCCAAUGCAUCCCACCACAUGAUGAUGCCUGAAGAGCCUUGGUUUUUUG [A46C C49A G63A] | -0.445
12 | GACCAAUCUGCCCUCAGAGCUCGAGAACAUCUUCGGAUGCAGAGUAGGCAGGCUUCGGUGGCGCGAUAACGCCAACGCCCUCAACCGCCAAUGCAUCCCACCACAUGAUGUUGCCUGAAGAGCCUUGGUUUUUUG [G45U G69A U78C U87G A111U] | -6.45
13 | GACCAAUCUGCCCUCAGAGCUCGAGAACAUCUUCGGAUGCAGAGUAGGCAGGCUUCGGUGGCGCGAUAGCGCCAACGUCCUCAACCUCCAACGCAUCCCACCACAUGAUGAUGCCUGAAGAGCCUUGGUUUUUUG [G45U U92C] | -2.47
14 | GACCAAUCUGCCCUCAGAGCUCGAGAACAUCUUCGGAUGCAGAGUAGGCAGGCUUCGGUGGCGCGAUAGCGCCAACGUCCUCAACCUCCAAUCCAUCCCACCACAUGAUGAUGCCUGAAGAGCGUUGGUUUUUUG [G45U G93C C124G] | 0.153
15 | GACCAAUCUGCCCUCAGAGCUCGAGAACAUCUUCGGAUGCAGAGGCGGCAGGUGUCGGUGGCGCGAUAGCGCCAACGUCCUCAACCUCCAAUGCAUCCCACCACAUGAUGAUGCCUGAAUAGCCUUGGUUUUUUG [A46C C53U U54G G120U] | -0.194
16 | GACCAAUCUGCCCUCAGAGCUCGAGAACAUCUUCGGAUGCAGAGUAGGCAGGCUUCGGUGGCACGAUAGCGCCAACGUACUCGACCUCCAAUGCAUCCCACCACAUGAUGAUGCCUGAAGAGCCUUGGUUUUUUG [G45U G63A C79A A83G] | -6.05
17 | GACCAAUCUGCCCUCAGAGCUCGAGAACAUCUUCGGAUGCAGAGGCGGCAGGCUUCGGUGGCGCGAUAGCGCCAACGUCCUCAACCUCCAAUGCAUCCCGCCACAUGAUGAUGCCUGAAGAGCCUUGGUUUUUUG [A46C A100G] | -4.28
18 | GACCAAUCUGCCCUCAGAGCUCGAGAACAUCUUCGGAUGCAGAGGCGGCAGGAUUCGGUUGCGCGAUAGCGCCAACGUCCUCAACCUCCAAUGCAUCCCACUACAUGAUGAUGCCUGAAGAGCCUUGGUUUUUUG [A46C C53A G60U C102U] | -3.11
19 | GACCAAUCUGCCCUCAGAGCUCGAGAACAUCUUCGGAUGCAGAGUAGGCAGGCUUCGGUGGCACGAUAGCGCCAACGUCCUCAACCUCCAAUGCAUCCCACCACAUGAUGAUGCCUGAAGAGCCUUGGUUAUUUG [G45U G63A U131A] | -1.33
20 | GACCAAUCUGCCCUCAGAGCUCGAGAACAUCUUCGGAUGCAGAGUAGGCAGGCUUCGGUGGCGCGAUAGCGCCAACGUCCUCAACCUCCAAUGCAUCCCACCACAUGAUGAUGCCUGAAGAGCCUUGGGUUUUUG [G45U U129G] | -2.58
21 | GACCAAUCUGCCCUCAGAGCUCGAGAACAUCUUCGGAUGCAGAGUAGGCAGGCUUCGGUGGCGCGAUAGCGCCAACGUCCUCAACCUCCAAUGCAUCCCACCACAUGAUCAUGCCUGAAGAGCCUUGGUUUUUUG [G45U G110C] | -4.47

Row | Variant | polymerase ribozyme fitness (log ratio)
22 | GACCAAUCUGCCCUCAGAGCUCGAGAACAUCUUCGGAUGCAGAGUAGGCAGGCUUCGGUGGCGCGAUAGCGCCAACGUCCUCAACCUCCAAUGCAUCCCACCACAUGAUGAUGCCUGAAGAGCCUUGGGUUAUUG [G45U U129G U132A] | -3.85
23 | GACCAAUCUGCCCUCAGAGCUCGAGAACAUCUUCGGAUGCAGAGUAGGCAGGCUUCGGUGGCGCGAUAGCGCCAACGUCCUCAACCUCCAAUGCAUCCCACCACAUGAAGAUGCCUGAAGAGCCUUGGUUUUUUG [G45U U109A] | -6.02
24 | GACCAAUCUGCCCUCAGAGCUCGAGAACAUCUUCGGAUGCAGAGUAGGCAGGCUUCGGUGGCGCGAUAGCCCCAACGUCCUCAACCUCCAAUGCAUCCCACCACAUGAUGAUGCCUGAAGAGCCUUGGUUUUUUG [G45U G71C] | -2.68
25 | GACCAAUCUGCCCUCAGAGCUCGAGAACAUCUUCGGAUGCAGAGUAGGCAGGCUUCGGUGGCGCGAUAGCGCCAACGUCCUCAACCUCCAAUACAUCCCACCACAUGAUGAUGCCUGAAGAGCCUUGGUUUUUUG [G45U G93A] | -1.79
26 | GACCAAUCUGCCCUCAGAGCUCGAGAACAUCUUCGGAUGCAGAGUAGGCAGGCUUCGGUGGCGCGAUAGCGCCAACGUCCUCAACCUCCAAUGCAUCCCACCACAUGAUGAUGCCAGAAGAGCCUUGGUUUUUUG [G45U U116A] | -4.04
27 | GACCAAUCUGCCCUCAGAGCUCGAGAACAUCUUCGGAUGCAGAGUAGGCAGGCUUCGGUGGCGCGAUAGCGCCAACGUCCUCAACCUCCAAUGCAUCCCACCACAUGAUGAUGCCCGAAGAGCCUUGGUUUUUUG [G45U U116C] | -1.67
28 | GACCAAUCUGCCCUCAGAGCUCGAGAACAUCUUCGGAUGCAGAGGCGGCAGGAUUCGGUGGCGCGAUAGCGCCAACGUCCUCAACCUCCAAUGCCUCCCACCACAUGAUGAUGCCUGAAGAGCCUUGCUUUUUUG [A46C C53A A95C G128C] | -3.03
29 | GACCAAUCUGCCCUCAGAGCUCGAGAACAUCUUCGGAUGCAGAGUAGGCAGGCUUCGGUGGCGCGAUAGCGCCAACGUCCUCAACCUCCAAUGCAUCCCACCACAUGAUGAUGCCUGAAGAGCCUUUGUUUUUUG [G45U G127U] | -3
30 | GACCAAUCUGCCCUCAGAGCUCGAGAACAUCUUCGGAUGCAGAGUAGGCAGGCUUCGGUGGCGCGAUAGCGCCAACCUCCUCAACCUCCAAUGCAUCCCACCACAUGAUGAUGCCUGAAGAGCCUUGGUUUUUUG [G45U G77C] | -1.17
31 | GACCAAUCUGCCCUCAGAGCUCGAGAACAUCUUCGGAUGCAGAGGCGGCGGGCUUCGGUGGCGCGAUAGCGCCAACGUCCUCAACCUCCAAUGCAUCCCACCACAUGAUGAUGCCUGAAGAGCCUUGGUUUUUUG [A46C A50G] | -0.277
32 | GACCAAUCUGCCCUCAGAGCUCGAGAACAUCUUCGGAUGCAGAGGCGGCAGGGUUCCGUGGCGCGCUAGCGCCAACGUCCUCAACCUCCAAUGCAUCCCACCACAUGAUGAUGCUUGAAGAACCUUGGUUUUUUG [A46C C53G G57C A66C C115U G122A] | -6.53
33 | GACCAAUCUGCCCUCAGAGCUCGAGAACAUCUUCGGAUGCAGAGUAGGCAGGCUUCGGUGGCGCGAUAGCGCCAACGUCCUCAACCUCCAAUGCAUCCCACCACAUGAUGAUGCCUUAAGAGCCUUGGUUUUUUG [G45U G117U] | -3.43
34 | GACCAAUCUGCCCUCAGAGCUCGAGAACAUCUUCGGAUGCAGAGUAGGCAGGCUUCGGUGGCGCGAUAGCGCCAACGUCCUCAACCUCCAAUGCAUCCCACCACAUGAUGAUGCCUAAAGAGCCUUGGUUUUUUG [G45U G117A] | -1.62
35 | GACCAAUCUGCCCUCAGAGCUCGAGAACAUCUUCGGAUGCAGAGGCGGCUGGCUUCGGUGGCGCGAUAGCUCCAACGUCCUCAACCUCCAAUGCAUCCCACCACAUGAUGAUGCCUGAAGAGCCUUGGUUUUUUG [A46C A50U G71U] | -1.86
36 | GACCAAUCUGCCCUCAGAGCUCGAGAACAUCUUCGGAUGCAGAGGCGGCAGGCUUCGGUGGCGCGAUAGCGCCUACGUCCUCAACCUCCAAUGCAUCCCACCACAUGAUGAUGCCUGAAGAGCCUUGGUUUUUUG [A46C A74U] | -0.673
37 | GACCAAUCUGCCCUCAGAGCUCGAGAACAUCUUCGGAUGCAGAGUAGGCAGGCAUCGGUGGCGCGAUAGCGCCAACGUCCUCAACCUCCAAUGCAUCCCACCACAUGAUGAUGCCUGAAGAGCCUUGGUUUUUUG [G45U U54A] | -1.35
38 | GACCAAUCUGCCCUCAGAGCUCGAGAACAUCUUCGGAUGCAGAGUAGGCAGGCCUCGGUGGCGCGAUAGCGCCAACGUCCUCAACCUCCAAUGCAUCCCACCACAUGAUGAUGCCUGAAGAGCCUUGGUUUCUUG [G45U U54C U132C] | -1.01
39 | GACCAAUCUGCCCUCAGAGCUCGAGAACAUCUUCGGAUGCAGAGUAGGCAGGCUUCGGUGGCGCGAUAGCGCCAACGUCCUCAACCACCAAUGCAUCCCACCACAUGAUGAUGCCUGAAGAGCCUUGGUUUUUUG [G45U U87A] | -1.32
40 | GACCAAUCUGCCCUCAGAGCUCGAGAACAUCUUCGGAUGCAGAGGCGGCAGGCUUCGGUGGCGCGAUAGCGCCAACGUCCUCAACCUCCAAUGCAUCCCCCCACAUGAUGAUGCUUGAAGAGCCUUGGAUUUUUG [A46C A100C C115U U129A] | -5.33
41 | GACCAAUCUGCCCUCAGAGCUCGAGAACAUCUUCGGAUGCAGAGGCGGCAGGCUUAGGUGGCGCGAUAGCGCCAACGUCCUCAACCUCCAAUGCAUCCCACCACAUGAUGAUGCCUGAAGAGCCUUGGUUUUUUG [A46C C56A] | -1.56
42 | GACCAAUCUGCCCUCAGAGCUCGAGAACAUCUUCGGAUGCAGAGUAGGCAGGCUUCGGUGGCGCGAUAGCGCCAACGCACUCAACCUCCAAUGCAUCCCACCACAUGAUGAUGCCUGAAGAGACUCGGUUUUUUG [G45U U78C C79A C123A U126C] | -3.45
